# Reference: patent publication US20080207501A1 (AMYLIN PHARMACEUTICALS, published 2008)
# Ends that are not written are not given here.
# T1: adrenomedullin receptor (receptor binding assay)
# T1 chain 1: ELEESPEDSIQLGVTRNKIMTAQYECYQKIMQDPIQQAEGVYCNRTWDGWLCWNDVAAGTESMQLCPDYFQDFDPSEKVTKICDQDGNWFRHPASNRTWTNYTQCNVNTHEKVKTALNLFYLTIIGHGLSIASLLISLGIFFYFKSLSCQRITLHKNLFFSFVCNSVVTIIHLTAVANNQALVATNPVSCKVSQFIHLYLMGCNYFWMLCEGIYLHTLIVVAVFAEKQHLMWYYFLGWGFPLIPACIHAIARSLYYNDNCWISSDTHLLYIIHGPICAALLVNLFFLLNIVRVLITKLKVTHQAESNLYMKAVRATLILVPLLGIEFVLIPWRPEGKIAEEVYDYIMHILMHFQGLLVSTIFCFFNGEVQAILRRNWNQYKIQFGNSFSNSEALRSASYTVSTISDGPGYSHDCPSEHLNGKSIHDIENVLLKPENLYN
# T1 chain 2: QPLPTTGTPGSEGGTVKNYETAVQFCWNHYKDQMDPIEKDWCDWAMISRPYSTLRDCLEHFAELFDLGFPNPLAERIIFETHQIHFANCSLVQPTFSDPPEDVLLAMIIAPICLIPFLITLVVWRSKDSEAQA
# B1: rat amylin (peptide, UniProt P12969 38-74, looked up)
# peptide: KCNTATCATQRLANFLVRSSNNLGPVLPPTNVGSNTY
# B2: Human Adrenomedullin (peptide)
# peptide: YRQSMNNFQGLRSFGCRFGTCTVQKLAHQIYQFTDKDKDNVAPRSKISPQGY-NH2
# modifications: ends and bridges not checked
# B3: Human Calcitonin (peptide)
# peptide: CGNLSTCMLGTYTQDFNKFHTFPQTAIGVGAP-NH2
# modifications: ends and bridges not checked
# B4: r/h Adrenomedullin (peptide)
# peptide: YRQSMNNFQGLRSFGCRFGTCTVQKLAHQIYQFTDKDKDNVAPRSKISPQGY
# modifications: ends and bridges not checked; cysteine pairing not given here
# B5: AFP-6 analog SEQ ID NO: 16 (peptide)
# peptide: TQAQLLRVGCVLGTCQVQNLSHRLWQLRQDSAPVDPSSPHSY-NH2
# modifications: ends and bridges not checked
# B6: AFP-6 analog SEQ ID NO: 20 (peptide)
# peptide: TQAQLLRVGCSNLSTCQVQNLSHRLWQLMGPAGRQDSAPVDPSSPHSY-NH2
# modifications: ends and bridges not checked
# B7: AFP-6 analog SEQ ID NO: 11 (peptide)
# peptide: GCVLGTCQVQNLSHRLWQLMGPAGRQDSAPVDPSSPHSY-NH2
# modifications: ends and bridges not checked
# B8: AFP-6 analog SEQ ID NO: 29 (peptide)
# peptide: VGCGNLSTCQVQNLSHRLWQLRQDSAPVDPSSPHSY-NH2
# modifications: ends and bridges not checked
# B9: AFP-6 analog SEQ ID NO: 18 (peptide)
# peptide: VGCVLGTCQVQNLSHRLWQLRQDSAPVDPSSPHSY-NH2
# modifications: ends and bridges not checked
# B10: AFP-6 analog SEQ ID NO: 36 (peptide)
# peptide: VGCVLGTCQVQNLSHRLWQLRQDSAPVEPSSPHSY-NH2
# modifications: ends and bridges not checked
# B11: AFP-6 analog SEQ ID NO: 10 (peptide)
# peptide: RVGCVLGTCQVQNLSHRLWQLMGPAGRQDSAPVDPSSPHSY-NH2
# modifications: ends and bridges not checked
# B12: AFP-6 analog SEQ ID NO: 21 (peptide)
# peptide: TQAQLLRVGCNTATCQVQNLSHRLWQLMGPAGRQDSAPVDPSSPHSY-NH2
# modifications: ends and bridges not checked
# B13: AFP-6 analog SEQ ID NO: 32 (peptide)
# peptide: TQAQLLRVGCVLGTCQVQNLSHRLWQLMGPAGRQESAPVEPSSPHSY-NH2
# modifications: ends and bridges not checked
# B14: AFP-6 analog SEQ ID NO: 12 (peptide)
# peptide: CVLGTCQVQNLSHRLWQLMGPAGRQDSAPVDPSSPHSY-NH2
# modifications: ends and bridges not checked
# Target: calcitonin receptor of CHO cells
# Experiment: cell-based or functional assay
"EC50, cAMP (AlphaScreen), CHO cells, Average","EC50, cAMP (AlphaScreen), CHO cells, Experiment 1","EC50, cAMP (AlphaScreen), CHO cells, Experiment 2","EC50, cAMP (AlphaScreen), CHO cells, Experiment 3",Binder
24 nM,21.6 nM,30.9 nM,19.6 nM,B1
1740 nM,,3600 nM,622 nM,B2
0.097 nM,0.077 nM,,0.075 nM,B3

# Target: T2, calcitonin receptor (receptor binding assay)
# T2 construct: also called rCalcitonin RBA; CT
# Experiment: rCalcitonin RBA, method not described
row,IC50,Binder
1,33 to 68 nM,B4

# Target: T2, calcitonin receptor (receptor binding …)
# Experiment: calcitonin receptor binding assay, method not described
row,IC50,Binder
1,22 nM,B5
2,16 nM,B6
3,27 nM,B7
4,9 nM,B8
5,24 nM,B9
6,198 nM,B10
7,55 nM,B11
8,17 nM,B12
9,1000 nM,B13
10,198 nM,B14

# Target: T1, adrenomedullin receptor (receptor …)
# Experiment: adrenomedullin receptor binding assay, method not described
row,IC50,Binder
1,1000 nM,B5
2,36 nM,B6
3,11 nM,B7
4,1000 nM,B8
5,1000 nM,B9
6,1000 nM,B10
7,7.1 nM,B11
8,47 nM,B12
9,7.1 nM,B13
10,18 nM,B14

# Target: T3, CGRP receptor (membranes prepared from SK-N-MC cells) (UniProt Q16602 23-461; O60894 27-148, limits assumed)
# T3 construct: whole, on cells; Endogenous receptor in SK-N-MC cell membranes; also called CGRP receptors; CGRP RBA
# T3 sequence (O60894 27-148 limits assumed, chain 2 of 2, one chain of several): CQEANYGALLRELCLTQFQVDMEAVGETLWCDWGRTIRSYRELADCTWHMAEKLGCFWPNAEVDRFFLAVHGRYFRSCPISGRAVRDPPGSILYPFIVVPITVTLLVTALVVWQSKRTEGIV
# Experiment: radioligand displacement, 125I-hCGRP, SK-N-MC cell membranes
# Experimental: (§1) Solutions were incubated for 60 minutes at 2 C. […] Filters were washed immediately before filtration with 5 ml cold PBS, and immediately after filtration with 15 ml cold PBS. […] Competition curves were generated by measuring binding in the presence of 10⁻¹² to 10⁻⁶ M unlabeled test compound and were analyzed by nonlinear regression using a 4-parameter logistic equation (INPLOT program; […] Software, San Diego, Calif.).
row,IC50,Binder
1,1.5 nM,B5
2,25 nM,B6
3,0.93 nM,B7
4,111 nM,B8
5,3.6 nM,B9
6,14 nM,B10
7,1.4 nM,B11
8,8.5 nM,B12
9,2.3 nM,B13
10,2.2 nM,B14

# Target: amylin receptor (nucleus accumbens membranes prepared from rat brain) (rat, UniProt P32214 25-516)
# Sequence (P32214 25-516): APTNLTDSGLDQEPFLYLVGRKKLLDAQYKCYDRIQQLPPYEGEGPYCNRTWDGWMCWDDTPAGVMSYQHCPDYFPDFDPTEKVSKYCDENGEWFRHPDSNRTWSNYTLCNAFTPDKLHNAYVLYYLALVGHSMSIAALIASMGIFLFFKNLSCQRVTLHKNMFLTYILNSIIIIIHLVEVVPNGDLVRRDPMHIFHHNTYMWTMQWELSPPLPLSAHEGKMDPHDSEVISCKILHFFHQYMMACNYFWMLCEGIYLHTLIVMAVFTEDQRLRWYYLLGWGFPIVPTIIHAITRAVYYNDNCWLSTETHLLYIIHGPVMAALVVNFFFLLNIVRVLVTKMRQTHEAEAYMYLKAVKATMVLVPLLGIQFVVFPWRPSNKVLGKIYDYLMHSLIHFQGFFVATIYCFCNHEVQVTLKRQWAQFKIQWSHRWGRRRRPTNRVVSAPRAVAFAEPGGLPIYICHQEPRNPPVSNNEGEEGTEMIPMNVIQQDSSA
# Experiment: radioligand displacement, 125I-rat amylin, rat nucleus accumbens membranes
# Experimental: Male Sprague-Dawley® rats (200-250) grams were sacrificed by decapitation. Brains were removed and place in cold phosphate-buffered saline (PBS). From the ventral surface, cuts were made rostral to the hypothalamus, bounded laterally by the olfactory tracts and extending at a 45° angle medially from these tracts. This basal forebrain tissue, containing the nucleus accumbens and surrounding regions, was weighed and homogenized in ice-cold 20 mM HEPES buffer (20 mM HEPES acid, pH adjusted to 7.4 with NaOH at 23° C.). Membranes were washed three times in fresh buffer by centrifugation for 15 minutes at 48,000×g. The final membrane pellet was resuspended in 20 mM HEPES buffer containing 0.2 mM phenylmethylsulfonyl fluoride (PMSF).
# as §1
row,IC50,Binder
1,21 nM,B5
2,123 nM,B4
3,1.9 nM,B6
4,7.7 nM,B7
5,7.5 nM,B8
6,18 nM,B9
7,39 nM,B10
8,5.1 nM,B11
9,8.3 nM,B12
10,16 nM,B13
11,9.8 nM,B14
